Measurements: patent publication US20250163127A1 (published 2025)

T1: CD80 (human)
T1 chain: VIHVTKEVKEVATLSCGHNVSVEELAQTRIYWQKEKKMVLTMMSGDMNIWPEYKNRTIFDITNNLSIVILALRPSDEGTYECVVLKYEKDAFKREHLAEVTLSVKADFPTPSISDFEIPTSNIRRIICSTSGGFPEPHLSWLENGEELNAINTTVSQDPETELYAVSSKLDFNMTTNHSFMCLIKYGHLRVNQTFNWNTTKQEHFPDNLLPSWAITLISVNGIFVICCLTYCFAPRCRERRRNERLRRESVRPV

T2: human TIGIT (human, UniProt Q495A1)
T2 sequence: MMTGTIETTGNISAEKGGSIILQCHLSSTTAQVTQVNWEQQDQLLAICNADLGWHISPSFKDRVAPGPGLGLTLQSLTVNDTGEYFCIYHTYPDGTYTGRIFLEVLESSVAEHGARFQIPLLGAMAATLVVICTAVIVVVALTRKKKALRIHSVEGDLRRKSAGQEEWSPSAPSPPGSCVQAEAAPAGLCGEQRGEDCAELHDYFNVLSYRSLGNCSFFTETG


Legend:
CD80 = target: T1, CD80; test: flow cytometry, CHO-CD80 cells
human TIGIT = target: T2, human TIGIT; test: flow cytometry, Jurkat/IL-2/TIGIT cells
CD2 = CD2 (Homo sapiens (Human), UniProt P06729); test: flow cytometry, CHO-CD2 cells

| EC50 (CD80) [nM] | EC50 (human TIGIT) [nM] | EC50 (CD2) [nM] | Binder |
| --- | --- | --- | --- |
| 4.1 | 0.6 |  | CD155 665-CTLA-4 3037-Fc (Fc fusion) WPPPGTGDVVVQAPTQVSGFLGDSVTLPCYLQVPNMEVTHVSQLTWARHGESGSMAVFHQTQGPWYAESKRLEFVAARLGAELRNASLRVFGLRAEDEGNYTCQFVTFPQRSRSVDIWLRVLGGGGSGGGGSGGGGSKAMHVAQPAVVFASSHGIASFVCEYASPWKATEVRVTVLRQADSQVTEVCAATYMTGNELTFLDDSICTGTSSGNQVNLTIQGLRAMDTGLYICKVEQMYPPPYLLGIGNGTQIYVIDPEPCPDSDGSGGGGSEPKSSDKTHTCPPCPAPEAEGAPSVFLFPPKPKDTLMISRTPEVTCVVVDVSHEDPEVKFNWYVDGVEVHNAKTKPREEQYNSTYRVVSVLTVLHQDWLNGKEYKCKVSNKALPAPIEKTISKAKGQPREPQVYTLPPSRDELTKNQVSLTCLVKGFYPSDIAVEWESNGQPENNYKTTPPVLDSDGSFFLYSKLTVDKSRWQQGNVFSCSVMHEALHNHYTQKSLSLSPG |
|  | 1 | 0.935 | CD58 3650-CD155 665-Fc (Fc fusion) SQQIYGVVYGNVTFHVPSNVPLKEVLWKKQKDKVAELENSEFRAFSSFKNRVYLDTVSGSLTIYNLTSSDEDEYEMESPNITDTMKFFLYVLESGGGGSGGGGSGGGGSWPPPGTGDVVVQAPTQVSGFLGDSVTLPCYLQVPNMEVTHVSQLTWARHGESGSMAVFHQTQGPWYAESKRLEFVAARLGAELRNASLRVFGLRAEDEGNYTCQFVTFPQRSRSVDIWLRVLGSGGGGSEPKSSDKTHTCPPCPAPEAEGAPSVFLFPPKPKDTLMISRTPEVTCVVVDVSHEDPEVKFNWYVDGVEVHNAKTKPREEQYNSTYRVVSVLTVLHQDWLNGKEYKCKVSNKALPAPIEKTISKAKGQPREPQVYTLPPSRDELTKNQVSLTCLVKGFYPSDIAVEWESNGQPENNYKTTPPVLDSDGSFFLYSKLTVDKSRWQQGNVFSCSVMHEALHNHYTQKSLSLSPG |
|  | 0.733 | 0.845 | CD155 665-CD58 3650-Fc (Fc fusion) WPPPGTGDVVVQAPTQVSGFLGDSVTLPCYLQVPNMEVTHVSQLTWARHGESGSMAVFHQTQGPWYAESKRLEFVAARLGAELRNASLRVFGLRAEDEGNYTCQFVTFPQRSRSVDIWLRVLGGGGSGGGGSGGGGSSQQIYGVVYGNVTFHVPSNVPLKEVLWKKQKDKVAELENSEFRAFSSFKNRVYLDTVSGSLTIYNLTSSDEDEYEMESPNITDTMKFFLYVLESGSGGGGSEPKSSDKTHTCPPCPAPEAEGAPSVFLFPPKPKDTLMISRTPEVTCVVVDVSHEDPEVKFNWYVDGVEVHNAKTKPREEQYNSTYRVVSVLTVLHQDWLNGKEYKCKVSNKALPAPIEKTISKAKGQPREPQVYTLPPSRDELTKNQVSLTCLVKGFYPSDIAVEWESNGQPENNYKTTPPVLDSDGSFFLYSKLTVDKSRWQQGNVFSCSVMHEALHNHYTQKSLSLSPG |
| 1.8 | 3.4 |  | CTLA-4 3060-CD155 665-Fc (Fc fusion) KAMHVAQPAVVFASSHGIASFVCEYASPWKATEVRVTVLRQADSQVTEVCAATYMTGNELTFLDDSICTGTSSGNQVNLTIQGLRAMDTGLYICKVEQMYPPPYLLGIGNGTQIYVIDPEPCPDSDGGGGSGGGGSGGGGSWPPPGTGDVVVQAPTQVSGFLGDSVTLPCYLQVPNMEVTHVSQLTWARHGESGSMAVFHQTQGPWYAESKRLEFVAARLGAELRNASLRVFGLRAEDEGNYTCQFVTFPQRSRSVDIWLRVLGSGGGGSEPKSSDKTHTCPPCPAPEAEGAPSVFLFPPKPKDTLMISRTPEVTCVVVDVSHEDPEVKFNWYVDGVEVHNAKTKPREEQYNSTYRVVSVLTVLHQDWLNGKEYKCKVSNKALPAPIEKTISKAKGQPREPQVYTLPPSRDELTKNQVSLTCLVKGFYPSDIAVEWESNGQPENNYKTTPPVLDSDGSFFLYSKLTVDKSRWQQGNVFSCSVMHEALHNHYTQKSLSLSPG |
